The values below come from PMC7017226.

The target of assay [1] is Stromal interacting molecule 1 (STIM1) (rat (endogenous in primary cortical neurons)) (UniProt P84903). The assay can be described thus: proximity ligation; Duolink in situ PLA on fixed 17-day-old rat cortical neurons; rabbit anti-STIM1 or anti-STIM2 with mouse anti-NR2A or anti-NR2B; cells treated 10 min with 2 mM CaCl2 (control) or 2 uM TG in 0.5 mM EGTA; PLA signals per cell counted in ImageJ.

The target of assay [2] is Stromal interacting molecule 2 (STIM2) (rat (endogenous in primary cortical neurons)). The description is as above.

Stromal interacting molecule 1 (STIM1) (rat (endogenous in primary cortical neurons)), sequence (P84903 23-685): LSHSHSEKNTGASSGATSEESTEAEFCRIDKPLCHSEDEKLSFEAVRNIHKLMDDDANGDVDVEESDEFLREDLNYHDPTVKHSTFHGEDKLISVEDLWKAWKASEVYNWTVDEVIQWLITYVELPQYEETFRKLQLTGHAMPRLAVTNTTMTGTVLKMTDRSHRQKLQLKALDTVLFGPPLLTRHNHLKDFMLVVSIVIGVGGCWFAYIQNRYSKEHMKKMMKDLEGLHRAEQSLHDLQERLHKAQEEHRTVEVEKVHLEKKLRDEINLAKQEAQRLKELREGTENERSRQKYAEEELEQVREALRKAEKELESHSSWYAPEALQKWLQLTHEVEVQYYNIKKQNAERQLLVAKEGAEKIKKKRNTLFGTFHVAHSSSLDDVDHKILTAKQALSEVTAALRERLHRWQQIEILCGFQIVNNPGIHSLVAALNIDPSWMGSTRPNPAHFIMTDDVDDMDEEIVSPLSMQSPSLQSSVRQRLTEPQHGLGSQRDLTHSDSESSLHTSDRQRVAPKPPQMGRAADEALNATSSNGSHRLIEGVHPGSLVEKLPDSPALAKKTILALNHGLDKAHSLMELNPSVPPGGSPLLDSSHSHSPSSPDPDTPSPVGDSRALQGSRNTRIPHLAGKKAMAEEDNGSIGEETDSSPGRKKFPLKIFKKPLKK
NMDA receptor subunit NR2B, Q00960 27-1482 (receptor; other documents disagree on this pair), sequence (Q00960 27-1482): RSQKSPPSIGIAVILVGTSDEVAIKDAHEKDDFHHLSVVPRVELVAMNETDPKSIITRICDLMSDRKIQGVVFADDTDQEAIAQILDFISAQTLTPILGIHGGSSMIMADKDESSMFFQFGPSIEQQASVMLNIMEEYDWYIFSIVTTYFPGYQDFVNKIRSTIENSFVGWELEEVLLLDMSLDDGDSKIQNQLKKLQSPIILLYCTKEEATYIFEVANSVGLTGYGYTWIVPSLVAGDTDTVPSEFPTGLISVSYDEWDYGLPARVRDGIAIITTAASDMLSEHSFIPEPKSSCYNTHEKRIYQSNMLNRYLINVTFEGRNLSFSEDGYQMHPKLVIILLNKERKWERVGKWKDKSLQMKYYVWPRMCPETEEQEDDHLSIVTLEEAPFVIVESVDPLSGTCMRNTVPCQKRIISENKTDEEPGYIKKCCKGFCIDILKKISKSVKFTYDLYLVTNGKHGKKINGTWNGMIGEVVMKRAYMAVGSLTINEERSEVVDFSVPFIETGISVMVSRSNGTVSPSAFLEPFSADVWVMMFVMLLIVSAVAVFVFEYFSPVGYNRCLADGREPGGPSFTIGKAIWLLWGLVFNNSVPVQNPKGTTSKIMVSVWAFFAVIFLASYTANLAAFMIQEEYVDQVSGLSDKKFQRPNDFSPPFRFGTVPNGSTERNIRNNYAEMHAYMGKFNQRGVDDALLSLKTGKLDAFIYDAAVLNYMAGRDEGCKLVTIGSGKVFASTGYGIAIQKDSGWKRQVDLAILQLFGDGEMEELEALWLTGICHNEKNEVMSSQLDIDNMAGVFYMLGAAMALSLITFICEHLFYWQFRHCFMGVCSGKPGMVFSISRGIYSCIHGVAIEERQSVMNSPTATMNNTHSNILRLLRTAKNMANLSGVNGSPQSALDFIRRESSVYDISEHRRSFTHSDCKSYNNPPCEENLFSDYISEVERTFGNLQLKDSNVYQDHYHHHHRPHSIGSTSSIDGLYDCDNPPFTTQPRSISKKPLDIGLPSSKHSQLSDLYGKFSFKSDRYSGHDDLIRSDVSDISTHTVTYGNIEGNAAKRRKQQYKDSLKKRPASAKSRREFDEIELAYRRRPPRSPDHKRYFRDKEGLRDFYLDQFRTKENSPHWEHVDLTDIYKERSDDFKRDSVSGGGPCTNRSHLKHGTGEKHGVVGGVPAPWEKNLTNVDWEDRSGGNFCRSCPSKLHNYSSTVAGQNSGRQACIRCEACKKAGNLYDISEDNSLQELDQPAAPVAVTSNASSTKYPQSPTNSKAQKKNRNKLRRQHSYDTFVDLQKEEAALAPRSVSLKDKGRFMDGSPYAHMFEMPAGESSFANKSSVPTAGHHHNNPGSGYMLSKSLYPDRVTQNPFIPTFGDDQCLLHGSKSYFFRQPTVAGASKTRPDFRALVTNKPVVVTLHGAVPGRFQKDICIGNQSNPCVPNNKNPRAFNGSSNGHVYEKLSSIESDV
NMDA receptor subunit NR2A, sequence (Q00959 23-1464): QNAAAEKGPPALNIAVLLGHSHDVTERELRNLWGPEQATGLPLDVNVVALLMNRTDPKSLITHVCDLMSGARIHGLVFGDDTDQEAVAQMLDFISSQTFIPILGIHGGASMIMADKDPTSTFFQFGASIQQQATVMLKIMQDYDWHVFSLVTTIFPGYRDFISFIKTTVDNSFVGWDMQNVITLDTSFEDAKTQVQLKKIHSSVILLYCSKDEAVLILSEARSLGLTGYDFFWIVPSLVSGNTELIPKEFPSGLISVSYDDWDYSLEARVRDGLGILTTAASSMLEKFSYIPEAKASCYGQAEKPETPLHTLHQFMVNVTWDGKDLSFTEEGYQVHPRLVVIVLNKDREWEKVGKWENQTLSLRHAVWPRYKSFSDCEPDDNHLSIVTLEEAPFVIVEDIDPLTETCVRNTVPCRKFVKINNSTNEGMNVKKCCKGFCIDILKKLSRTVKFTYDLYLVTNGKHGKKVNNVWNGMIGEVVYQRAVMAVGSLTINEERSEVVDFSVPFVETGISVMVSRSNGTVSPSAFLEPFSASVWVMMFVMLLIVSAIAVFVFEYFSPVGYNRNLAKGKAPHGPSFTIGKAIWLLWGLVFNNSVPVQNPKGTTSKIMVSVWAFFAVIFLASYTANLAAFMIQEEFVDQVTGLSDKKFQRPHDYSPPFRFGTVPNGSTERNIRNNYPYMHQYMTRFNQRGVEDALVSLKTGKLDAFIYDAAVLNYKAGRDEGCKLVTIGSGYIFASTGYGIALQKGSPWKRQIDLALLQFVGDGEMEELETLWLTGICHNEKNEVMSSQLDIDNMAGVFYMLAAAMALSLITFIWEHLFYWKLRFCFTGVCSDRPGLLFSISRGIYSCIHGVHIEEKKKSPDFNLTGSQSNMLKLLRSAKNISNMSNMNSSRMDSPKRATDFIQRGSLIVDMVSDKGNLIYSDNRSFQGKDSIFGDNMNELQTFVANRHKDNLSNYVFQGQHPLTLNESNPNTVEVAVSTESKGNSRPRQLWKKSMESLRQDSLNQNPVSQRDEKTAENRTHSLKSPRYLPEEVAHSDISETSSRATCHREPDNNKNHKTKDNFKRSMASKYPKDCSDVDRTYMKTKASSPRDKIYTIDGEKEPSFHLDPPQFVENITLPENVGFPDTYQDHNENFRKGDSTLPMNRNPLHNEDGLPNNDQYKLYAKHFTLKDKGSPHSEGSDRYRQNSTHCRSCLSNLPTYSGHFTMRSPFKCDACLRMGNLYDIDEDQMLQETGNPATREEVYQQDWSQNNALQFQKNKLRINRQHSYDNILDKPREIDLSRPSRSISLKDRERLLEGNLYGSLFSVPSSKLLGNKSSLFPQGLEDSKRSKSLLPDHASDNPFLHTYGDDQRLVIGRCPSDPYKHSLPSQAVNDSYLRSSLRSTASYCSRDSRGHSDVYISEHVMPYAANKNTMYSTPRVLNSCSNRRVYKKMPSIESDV

As to “NMDA receptor subunit NR2B, Q00960 27-1482 (receptor; other documents disagree on this pair)”, the PLA complexes per cell (complexes per cell) in assay [1] is 57.2.
For “NMDA receptor subunit NR2A (from UniProt Q00959 23-1464)”, in assay [2], the PLA complexes per cell (complexes per cell) turned out to be 3.78.
